From US11098306B1, “Promoters and uses thereof” (priority 2018, dated 2021)

B1: Pvtrc: engineered hybrid phenolic-inducible promoter, PemrR with spacer region of Ptrc, SEQ ID NO:54 (nucleic acid)
DNA: GAATCATTTTTCTAAAACAATACATTTGACAATTAATCATCCGGCTCGTATAATGATCGGCTGAAATTAATGAGGTCATACCCAAAT
modifications: expressed or natural sequence
B2: Pvtic: engineered hybrid phenolic-inducible promoter, PemrR with spacer region of Ptic, SEQ ID NO:55 (nucleic acid)
DNA: GAATCATTTTTCTAAAACAATACATTTGACAATTAATCATCGCGGCTCGTATAATGATCGGCTGAAATTAATGAGGTCATACCCAAAT
modifications: expressed or natural sequence
B3: Pvtac: engineered hybrid phenolic-inducible promoter, PemrR with spacer region of Ptac, SEQ ID NO:53 (nucleic acid)
DNA: GAATCATTTTTCTAAAACAATACATTTGACAATTAATCATCGGCTCGTATAATGATCGGCTGAAATTAATGAGGTCATACCCAAAT
modifications: expressed or natural sequence

Tested on: mCherry expression in E. coli
Test: Bulk mCherry fluorescence of E. coli strains (plate reader, normalized to OD600) after induction with phenolics
Assay type: cell-based
Conditions: for improved gene expression in comparison with PemrR: 1 mM coumaric acid; for improved gene expression in comparison with PemrR / fold change in comparison with PemrR / improvement of expression levels in comparison with PemrR: 24 h of induction; for fold change in comparison with PemrR: 5 mM coumaric acid; for improvement of expression levels in comparison with PemrR: 5 mM vanillic acid; for increase in fluorescence / protein expression in comparison with native promoter PemrR (control strain RIF01): induced with 5 mM vanillin, 12 h after induction, 30° C.
Method: Cell growth and bulk fluorescence measurements: For the fluorescence experiments, frozen stocks of the strains were used to inoculate 5 ml of LB medium containing 25 mg l^−1 chloramphenicol and incubated at 37° C. with an orbital shaking of 250 r.p.m. Overnight cultures were used to inoculate (0.1% volume/volume) an M9 salt medium containing 25 mg l^−1 chloramphenicol, 20 g l^−1 glucose, and 5 g l^−1 yeast extract. The M9 salt medium (Sigma-Aldrich) contains 6.78 g l^−1 Na2HPO4, 3 g l^−1 KH2PO4, 0.5 g l^−1 NaCl, 1 g l^−1 NH4Cl, 0.1 mM CaCl2), and 2 mM MgSO4. 200 μl cultures of each strain (in triplicates) were loaded into black 96-well plates (black polystyrene plates with flat pclear bottom from Greiner Bio-One) and covered with Breathe-Easier sealing membrane (Sigma).
The cultures were grown until mid-log phase at 37° C. and 250 rpm. The mid-log phase cells were induced with phenolics such as vanillin, coumaric acid, and vanillic acid at varying concentrations. The induced cells were incubated in a plate reader (Tecan Infinite 200 Pro) at 30° C. and a 3 mm shaking amplitude. The optical density of the cultures and the mCherry fluorescence was monitored at required intervals in the plate reader. Cell density was measured by monitoring the absorption of the cultures at 600 nm (OD600). Fluorescence was recorded using an excitation wavelength of 575±9 nm and an emission wavelength of 610±20 nm with a manual gain of 100 and a Z-position of 20,000 μm. Fluorescence readings are reported as normalized fluorescence given by the ratio of fluorescence of the cells to the OD600. The fold changes were reported as the ratio of fluorescence level of the strain with engineered promoter to the strain with the basal promoter.

Molecule | induction of the promoters (PemrR, Pvtac, Pvtrc, Pvtic) by the phenolic (strains RIF01-RIF04, effect emerged after 24 h) | improved gene expression in comparison with PemrR [fold] | fold change in comparison with PemrR [fold] | improvement of expression levels in comparison with PemrR [fold] | increase in fluorescence / protein expression in comparison with native promoter PemrR (control strain RIF01) [fold]
COc1cc(C(=O)O)ccc1O [Vanillic acid, vanillic acid, reference compound] | some level of induction |  |  |  | 
B1 |  | 8.5 | 6.4 | 6.8 | 3.0
B2 |  |  |  | 2.1 | 1.5
B3 |  | 10.4 | 7.1 | 9.5 | 4.6
